Source: patent publication US20110268740A1

Key:
[1] = target: M2e consensus peptide (free, soluble) (Influenza A virus (consensus of H1, H2 and H3 subtypes of human Influenza A viruses)); assay: Friguet ELISA, free M2e peptide in solution
[2] = target: M2e-short (Influenza A virus (consensus)); assay: ELISA, apparent affinity, purified scFv-msFcγ2c on immobilised M2e-short

Binder | Kd [1] [nM] | EC50 [2] [nM] | EC50 (scFv-D005-msFcγ2c) [µM] | EC50 (scFv-F052-msFcγ2c) [µM]
scFv-F052-msFcγ2c (Fc fusion) DADPAQAAERVMTQSPDALAVSLGERATINCKSSQSLLYSSNNKNYLAWYQKKPGQPPKLLIYWASTRESGVPDRFSGSGSGTEFTLTINSVQAEDVAVYYCQQYFMTPITFGQGTKLEIKGGSSRSSSSGGGGSGGGGQVQLQESGGALVQPGRSLRLSCRTSGLNFGDYPINWVRQAPGKGLEWVGFIKSKSYGVTTEFAASVEGRFTISRDDSRGIAYLQMNSLKTEDTAVYYCTSSSGFLYYFDYWGQGTLVTVSSASTKGPSVTSGQAGRKLEPRVPITQNPCPPLKECPPCAAPDLLGGPSVFIFPPKIKDVLMISLSPMVTCVVVDVSEDDPDVQISWFVNNVEVHTAQTQTHREDYNSTLRVVSALPIQHQDWMSGKEFKCKVNNRALPSPIEKTISKPRGPVRAPQVYVLPPPAEEMTKKEFSLTCMITGFLPAEIAVDWTSNGRTEQNYKNTATVLDSDGSYFMYSKLRVQKSTWERGSLFACSVVHEGLHNHLTTKTISRSLGK | 5 | 0.0628 |  | 
SLLTEVETPIRNEWGCRCNDSSD (modifications not checked) [M2e consensus peptide (free, soluble)] |  |  | 18.8 | 22
SLLTEVETPIRNEWGC (modifications not checked) [M2e-short] |  |  | 27.5 | 46.8
scFv-D005-msFcγ2c (Fc fusion) DADPAQAAELVMTQSPDSLAVSLGERATINCKSSQSVLYTSNNKNYLGWYQQKPGQPPNLLIYWASTRESGVPDRFSGSGSGTDFTLTINSVQAEDVAVYYCQQYFMTPITFGQGTRLEIKGGSSRSSSSGGGGSGGGGEVQLVESGGALVQPGRSLRLSCRTSGLNFGDYPINWVRQAPGKGLEWVGFIKSKSYGVTTEFAASVEGRFTISRDDSRGIAYLQMNSLKTEDTAVYYCTSSSGFLYYFDYWGQGTLVTVSSASTKGPSVTSGQAGRKLEPRVPITQNPCPPLKECPPCAAPDLLGGPSVFIFPPKIKDVLMISLSPMVTCVVVDVSEDDPDVQISWFVNNVEVHTAQTQTHREDYNSTLRVVSALPIQHQDWMSGKEFKCKVNNRALPSPIEKTISKPRGPVRAPQVYVLPPPAEEMTKKEFSLTCMITGFLPAEIAVDWTSNGRTEQNYKNTATVLDSDGSYFMYSKLRVQKSTWERGSLFACSVVHEGLHNHLTTKTISRSLGK | 4 | 0.0809 |  | 
